Among the data in paper PMC10244618 are enrichment values, retold here.

“And” between values parts separate entries of the source, which are not always exact repeats. Equal entries are not always repeated.

The chains are these.
B1: NF2 (merlin) isoform 7, human, full length (507 aa, lacks exons 2-3 = isoform-1 residues 39-121; exon-16 C-terminus), P35240-4 (parent)
chain: MAGAIASRMSFSSLKRKQPKTFTVRIVTMDAEMEFNCEVKKQILDEKIYCPPEASVLLASYAVQAKYGDYDPSVHKRGFLAQEELLPKRVINLYQMTPEMWEERITAWYAEHRGRARDEAEMEYLKIAQDLEMYGVNYFAIRNKKGTELLLGVDALGLHIYDPENRLTPKISFPWNEIRNISYSDKEFTIKPLDKKIDVFKFNSSKLRVNKLILQLCIGNHDLFMRRRKADSLEVQQMKAQAREEKARKQMERQRLAREKQMREEAERTRDELERRLLQMKEEATMANEALMRSEETADLLAEKAQITEEEAKLLAQKAAEAEQEMQRIKATAIRTEEEKRLMEQKVLEAEVLALKMAEESERRAKEADQLKQDLQEAREAERRAKQKLLEIATKPTYPPMNPIPAPLPPDIPSFNLIGDSLSFDFKDTDMKRLSMEIEKEKVEYMEKSKHLQEQLNELKTEIEALKLKERETALDILHNENSDRGGSSKHNTIKKPQAQGRRPICI

The variants in this assay derive from B1. The assay can be described thus: reverse yeast two-hybrid deep mutational scan (rY2H-seq): NF2 isoform 7 mutant library as bait mated with wild-type prey strains; selection on medium lacking adenine for non-interacting pairs; NextSeq paired-end sequencing; enrichment vs …. The settings on record: yeast diploids after mating (RBait_S3 x RPrey_S3), 30 °C, selection for reporter genes on NB agar, HIGHER = WEAKER BINDING (the opposite of display enrichments): higher = stronger loss of interaction: reverse Y2H selects yeast in which bait and prey do NOT interact (growth without adenine), so a …, hits-only table, scale: rY2H score, numbering: uniprot, sequence starts at 1. For orientation: A reporter such as luciferase makes a cellular process visible.

Where [1] appears, read: with EMILIN1 (elastin microfibril interfacer 1), Q9Y6C2, human ABL2 co-expressed as the kinase-dead K35M mutant ….
Where [2] appears, read: with EMILIN1 (elastin microfibril interfacer 1), Q9Y6C2, human tyrosine kinase ABL2 co-expressed as the active kinase ….
Where [3] appears, read: with KDM1A (lysine-specific histone demethylase 1A; the table's label AOF2 is a gene synonym of KDM1A), O60341, human ABL2 co-expressed as the kinase-dead K35M mutant ….
Where [4] appears, read: with NF2 C-terminal domain (wild type; homomeric NF2-NF2 interaction), P35240, human ABL2 co-expressed as the kinase-dead K35M mutant …, partner unresolved.
Setting [5] is: with PIK3R3 (phosphatidylinositol 3-kinase regulatory subunit gamma), Q92569, human tyrosine kinase ABL2 co-expressed as the active kinase ….
Setting [6] is: with KDM1A (lysine-specific histone demethylase 1A; the table's label AOF2 is a gene synonym of KDM1A), O60341, human tyrosine kinase ABL2 co-expressed as the active kinase ….

As for T168L, the enrichment under setting [1] is 2.75; the enrichment under setting [2] was 6.59 and 12.1; the enrichment under setting [3] was 7.24.
On to R227K, for which the enrichment under setting [1] was 1.95.
On to R253K, for which the enrichment is, setting by setting: under setting [1], 5.53; under setting [2], 10.6; under setting [3], 6.44 and 7.44; under setting [4], 1.43.
For the variant E164K, the enrichment by setting is: under setting [1], 2.27; under setting [5], 2.53.
On to E164L, for which the enrichment under setting [1] turned out to be 2.39, the enrichment under setting [3] came out at 3.94 and the enrichment under setting [5] was 2.07.
For the variant E164A, the enrichment by setting is: under setting [1], 2.89 and 5.48; under setting [2], 2.44; under setting [3], 5.57; under setting [4], 1.48; under setting [5], 6.96.
Turning to P87S, the enrichment under setting [1] is 1.62; the enrichment under setting [2] amounted to 1.61; the enrichment under setting [3] was determined as 2.56; the enrichment under setting [6] was determined as 3.13; the enrichment under setting [5] turned out to be 2.86.
In the case of G135E, the enrichment worked out at 2.42 under setting [1] and 2.61 under setting [3].
As for L58K, the enrichment runs as follows: under setting [1], 3.39; under setting [2], 9.82 and 9.59; under setting [3], 7.46 and 14.7; under setting [6], 7.51; under setting [4], 2.82.
For N137L, the enrichment runs as follows: under setting [1], 2.2; under setting [2], 2.24; under setting [6], 1.53; under setting [5], 1.5.
With I171K, the enrichment was found to be 2.56 under setting [1]; 1.76 under setting [2]; 4.6 under setting [3]; 8.42 under setting [6]; 6.85 under setting [5].
On to R263K, for which the enrichment amounted to 2.14 under setting [1] and 1.91 under setting [3].
As to R263L, the enrichment under setting [1] came out at 3.17.
Take K66E: the enrichment reads like this: under setting [1], 2.7; under setting [6], 3.77; under setting [5], 4.55.
With K66A, the enrichment by setting is: under setting [1], 2.97; under setting [2], 3.9; under setting [3], 3.6; under setting [5], 5.98.
For the variant N165A, the enrichment is 3.8 and 4.08 under setting [1]; 5.59 and 4.51 under setting [2]; 5.23 and 4.34 under setting [3]; 11.8 under setting [6]; 3.7 and 6.3 under setting [4].
In the case of N165L, the enrichment runs as follows: under setting [1], 3.15 and 2.54; under setting [2], 3.7; under setting [3], 6 and 7.17; under setting [6], 1.81; under setting [4], 2.17 and 4.23; under setting [5], 8.43.
For N165E, the enrichment was 5.14 and 5.74 under setting [1]; 3.48 and 2.42 under setting [2]; 11.1 and 8.25 under setting [3]; 4.76 and 3.86 under setting [6]; 5.73 under setting [4]; 7.65 and 9.27 under setting [5].
Consider M122E, for which, under setting [1], the enrichment was found to be 4.7.
As to L256A, the enrichment came to 5.54 under setting [1] and 2.38 under setting [6].
As to A59L, the enrichment is 10.7 and 8.14 under setting [1]; 15.4 under setting [3]; 29 under setting [6]; 7.54 under setting [4]; 25.9 under setting [5].
As for Q82A, the enrichment was determined as 4.41 under setting [1], 9.08 under setting [3], 4.66 under setting [6] and 2.07 under setting [4].
D69A: the enrichment under setting [1] was 2.53.
L57E: the enrichment under setting [1] stood at 1.73.
Take P163K: the enrichment reads like this: under setting [1], 5.55; under setting [3], 7.04; under setting [6], 5.58.
Consider P163L, for which the enrichment stood at 3.08 under setting [1]; 3.88 under setting [2]; 7.24 under setting [3]; 5.95 under setting [6]; 1.78 under setting [4]; 12.3 under setting [5].
As to I141A, the enrichment was 20.7 under setting [1]; 21.3 and 14.9 under setting [3]; 30.8 under setting [6].
For the variant H159S, the enrichment under setting [1] was 21.9 and the enrichment under setting [4] amounted to 18.
For S55E, the enrichment is, setting by setting: under setting [1], 6.87; under setting [2], 5.24; under setting [3], 5.38; under setting [6], 7.48.
Turning to L158K, the enrichment was 2.72 under setting [1]; 3.39 and 2.28 under setting [2].
Regarding L158E, the enrichment reads like this: under setting [1], 4.99; under setting [2], 4.25 and 2.98.
Take L158A: the enrichment by setting is: under setting [1], 2.28; under setting [2], 2.56; under setting [6], 11; under setting [4], 1.57.
With T147E, the enrichment under setting [1] is 4.29.
Same read-out and setting: for N180T the value was 1.38.
K15A: the enrichment under setting [1] was found to be 6.29; the enrichment under setting [2] was 6.35 and 3.55; the enrichment under setting [3] amounted to 13.9; the enrichment under setting [6] was 2.57; the enrichment under setting [5] turned out to be 7.57.
Take M251A: the enrichment runs as follows: under setting [1], 3.87 and 2.36; under setting [2], 6.14; under setting [3], 4.5; under setting [6], 2.61; under setting [5], 4.21.
With T28L, the enrichment under setting [1] was determined as 5.37.
Consider E177L, for which the enrichment is, setting by setting: under setting [1], 4.46; under setting [2], 2.3; under setting [4], 5.54.
As for Y61L, the enrichment reads like this: under setting [1], 3.12; under setting [2], 5.18; under setting [3], 9.24; under setting [6], 7.08; under setting [4], 3.55; under setting [5], 4.61 and 3.92.
For A155L, the enrichment under setting [1] is 2.92 and 3.34.
Turning to V74L, the enrichment under setting [1] amounted to 3.98.
As to V74C, the enrichment was 2.3 under setting [1], 2.58 under setting [3] and 1.98 under setting [5].
